From the DeepSol protein solubility set

Experiment: soluble on expression in E. coli; label from the status in PepcDB or PDB records

Row | Sequence | soluble on expression in E. coli
1 | MRTALLQNLFSLFPFDLHGDCDVPPARDGIRVSCIINFYGRLNVLAGILWSLAQQDFPRSAFEVILVEDRGGSDEGRALAEEFSSRLPIVYAPLDKQYGLMGYSRNFGLERSRGEFILFLDDDTIILQDDFLKTMVAYFDAQPGVSAIMPHGEASFAFVDDRYDFHDPFFMTSRCTAYRRTVLASLGGFMSSFIGQEDVEFVIRFHAAGNRCAAVPQLAYRHPPLYVTNLGKPMAVGSSFYGIRKRYPLVTWLLAVVNCSRHLPLVLAPSRKYREMGRFGLGFLWGVLTAPFRSGSLNYRLEHHHHHH | not soluble
2 | MRDSIMQMCELCGKLTDKLYKVIIEGSEMNVCKECAKFGKSPKTYSRLGKKTIIGKGTITTNKQVKKPIKRRRDIFDTLPMLREDYGDVIREAREKRGLSIEELAKKLKMKASTLQKFERYELEPNEKEIKILEKELKISLTESIGEETSYYGGRDEDGFTLGDFIKIKK | not soluble
3 | MSLTPVISAYNWVPPPARGLVRDLRIRWALEELGRPYAVETVLHQDKTAYRAKQPFGQVPAYDDGEVQLFESGAIVLHIAEQDERLLPRDPAARARAIGWMFCALNTLEVPLLQLAELNIFSAGQAWTEGARPKVERWVRQRLGQLAARLGDKTYLDGETFTAGDLLVADVLRQAPDAMLAETPTLVAYRDRCTARPAFQKALAAQLADLNGPPPPGWGEGHHHHHH | soluble
4 | MSTASVLDDIDYDSSFEMVEEEKFEKIENTDNSENFQYVSTKGNTVKEVNINSNEKKKKEAPIQILTAMIGKWKLASSENLQEYFTLEKFPEITQMAWEHGITCYKMNGNQLHVHTDLLGKSLIPTIFEFDKPIARDDNAVSTHAEGNMMSTICKRIADGSIVWKVERLIKNGNLVVFNSRGNFRCKRVYKRVN | not soluble
5 | MNYFFCADESRQVNEDPIGSGCRRQCYVLIECPPPWMANEFDSKAVPANLRSLENEFYAVEPDGILLFIYSEELRQNYLTRILIFRPMMGYSGGYIKQEIHVSSLEDVAIVLKDWLAGKDIADTDINPHTRDILVCTHGTHDKCCAKYGIPFYRQAKNIVADLAVESVRIWQSSHFSGHRFAPTILDLPQGRYYGKLDCQSFTNILTYTGDINCLKSIYRGWGILPFPAQVMEGELIFLHGWQWFNYKVSCCFIEQSEDECFNRIEISAILPDGDIKTYQADVVEDESKSIYLIGDCHGIEPELIPKYSVNNLIQII | not soluble
6 | MQAQQLPYEFFSEENAPKWRGLLVPALKKVQGQVHPTLESNDDALQYVEELILQLLNMLCQAQPRSASDVEERVQKSFPHPIDKWAIADAQSAIEKRKRRNPLSLPVEKIHPLLKEVLGYKIDHQVSVYIVAVLEYISADILKLVGNYVRNIRHYEITKQDIKVAMCADKVLMDMFHQDVEDINILSLTDEEPSTSGEQTYYDLVKAFMAEIRQYIRELNLIIKVFREPFVSNSKLFSANDVENIFSRIVDIHELSVKLLGHIEDTVEMTDEGSPHPLVGSCFEDLAEELAFDPYESYARDILRPGFHDRFLSQLSKPGAALYLQSIGEGFKEAVQYVLPRLLLAPVYHCLHYFELLKQLEEKSEDQEDKECLKQAITALLNVQSGMEKICSKSLAKRRLSESACRFYSQQMKGKQLAIKKMNEIQKNIDGWEGKDIGQCCNEFIMEGTLTRVGAKHERHIFLFDGLMICCKSNHGQPRLPGASNAEYRLKEKFFMRKVQINDKDDTNEYKHAFEIILKDENSVIFSAKSAEEKNNWMAALISLQYRSTLERMLDVTMLQEEKEEQMRLPSADVYRFAEPDSEENIIFEENMQPKAGIPIIKAGTVIKLIERLTYHMYADPNFVRTFLTTYRSFCKPQELLSLIIERFEIPEPEPTEADRIAIENGDQPLSAELKRFRKEYIQPVQLRVLNVCRHWVEHHFYDFERDAYLLQRMEEFIGTVRGKAMKKWVESITKIIQRKKIARDNGPGHNITFQSSPPTVEWHISRPGHIETFDLLTLHPIEIARQLTLLESDLYRAVQPSELVGSVWTKEDKEINSPNLLKMIRHTTNLTLWFEKCIVETENLEERVAVVSRIIEILQVFQELNNFNGVLEVVSAMNSSPVYRLDHTFEQIPSRQKKILEEAHELSEDHYKKYLAKLRSINPPCVPFFGIYLTNILKTEEGNPEVLKRHGKELINFSKRRKVAEITGEIQQYQNQPYCLRVESDIKRFFENLNPMGNSMEKEFTDYLFNKSLEIEPRNPKPLPRFPKKYSYPLKSPGVRPSNPRPGT | soluble
7 | MIDIHNHILVDIDDGPKTIEKSIALLKQAKDEGVTSIVATPHHLHPRYDNTFQQVLVKLAELRTHPEVQALDIKLFPGQEIRITDSILKGLDNGSIQGINRSKYLLIEFPTGEVPHYTKQLFFEIQSRGYIPIIAHPERNRSIAKNPEILYELVANGALSQLTSSSLVGGFGKNIQKLSLQFIECNLAHFVASDAHSCDQRPFLMQELFHNHKLKKYSNDIEALLRNASSVINDNFVYLDRPTKPGKVKSFLKWF | not soluble
8 | MTQTYNADAIEVLTGLEPVRRRPGMYTDTTRPNHLGQEVIDNSVDEALAGHAKRVDVILHADQSLEVIDDGRGMPVDIHPEEGVPAVELILCRLHAGGKFSNKNYQFSGGLHGVGISVVNALSKRVEVNVRRDGQVYNIAFENGEKVQDLQVVGTCGKRNTGTSVHFWPDETFFDSPRFSVSRLTHVLKAKAVLCPGVEITFKDEINNTEQRWCYQDGLNDYLAEAVNGLPTLPEKPFIGNFAGDTEAVDWALLWLPEGGELLTESYVNLIPTMQGGTHVNGLRQGLLDAMREFCEYRNILPRGVKLSAEDIWDRCAYVLSVKMQDPQFAGQTKERLSSRQCAAFVSGVVKDAFILWLNQNVQAAELLAEMAISSAQRRMRAAKKVVRKK | soluble
9 | MGRFAVYEDPFVTKLMNTIGSMTFDGLGFTLLELYRDLVISADNYFMNYVNYGETPHDVGEESIEDPIYGASYPYWWTDLGPTLVLMLYRDYVFTSNREILEKNYNKIKEIIDWLIRKDMDNDCIPDSKGGYDNSYDGTHMYGASSYIASMFLSALTAFIKMSEILDVKIDDKYYRFLECGKKTFNSLWNGKYFILWKKNDEENTSCLNSQLLGQFWCDILGLPPITDHDKINTALRSIYELNFKASKYCLTNAVREDGSVDSSTAQLRSCWPRVSFAVAAHMILRGMVKEGIEVAKREWETIKELNPFDQSSRIDAIDGKYVGLMSYIGSTSVWLLKLALDKIRLEHHHHHH | soluble
10 | MTLNIYTEEWAPISFSVDGKPDGLAVQVVQEIQKRIDNQDPIKVVPWARGWKIITEQPNTVLFTMTRTAERERMFSLIGPVAVGTTNFYALKNSNLKINLEHHHHHH | not soluble
11 | MRKRLLGDEHPDVAFSLNNLATVLAATNHPEEALSHRIEASNINDQIIRNIFAFSSESDRLSFLDKIRNNFDLFLSLVCNHLANSNRAKLAALDFVLKRKALTASALAAQNQAFYNGRYPQLQEKFSQLRDLSNQIIHLTFAVPETDDLATYQDNIRQLQSRHNHLQKQLAAQVPEIQLSEQVFDCQAIAAALPHNSILVEFVRFDVFDFQAVSANGETQWHPARYLAFILTAGKPNAVQMIDLGVADTIDRLIQAFRLQASDYTLPTLAWGKAPKLRVKSYNPTPAIELSQALLEPIRGLVKDCRHLIIAPDGNLNLVPFQVLPIDATSSRLLMDEYTISYLGVGREILRSKFQPSTGSISAPLIIADPDFDLSGTGDWENNTRLDVRSLQLSNQFTETGLLRAPGTRFLGESVAKKLPDAKLYLGAEALETRLTNSNCPKIMLIATHGLFQSDSQAQPVTKRRNLLSMERQRTTKVENPMLRSGLALAGANTWLAGGTLPLAAGKGFVFAQDIANLDLWANELTVLSACDTARGDIKIGEGVFGLRRAFAVAGTKTLVMSLWSVPDKVTALLMERFFDNLQSGMSRSEALDSAQNYIRNITVKELRASALGLEVLKELLAVKELSANSRIDCQEDDTPLEHPFYWGAWICQGNTNPLVNLEHHHHHH | not soluble
12 | MSLKQILNHARIVLADRVIDNGALEINDGRIAAIHEHALPDGEDLAGALLLPGLVEIHTDNLEKHLMPRNGVLWPILPAVITHDAQCVAAGITTVLDALAVGDLEGESVRLDTLHSSFDAINQGMREGALRADHFFHLRCELAYPGLLDELEALIAHPAVKLVSVMDHTPGQRQYRDLEQYKKYYGKKKVGWNEDTFLAAVAERKTKQAQYAGRHKQAVVELAQARGIALASHDDTDEAHIEEALRDGVAISEFPTTREAAAAAKRHGLATVMGAPNVVRGGSHSGNVAALELARHDLLDILSSDYVPASLLHGAWLLHAQAGWSLPRAVAAVSLNPAHSVGLADRGDIAVGQRADLVAMIVHGDVPLVRQVWNSGRRVFEGHHHHHH | soluble
